The values below come from patent US20230099801A1, “RESTORATION OF T CELL ACTIVITY VIA THE CD39/CD73 AXIS” (INNATE PHARMA, priority 2017, published 2023).

Changes are numbered by the printed parent chain.

Assay [1] addresses T1, CD73 mutants having a substitution at residue K136 (Homo sapiens, UniProt P21589, K136A).
T1 sequence (P21589 27-549 K136A): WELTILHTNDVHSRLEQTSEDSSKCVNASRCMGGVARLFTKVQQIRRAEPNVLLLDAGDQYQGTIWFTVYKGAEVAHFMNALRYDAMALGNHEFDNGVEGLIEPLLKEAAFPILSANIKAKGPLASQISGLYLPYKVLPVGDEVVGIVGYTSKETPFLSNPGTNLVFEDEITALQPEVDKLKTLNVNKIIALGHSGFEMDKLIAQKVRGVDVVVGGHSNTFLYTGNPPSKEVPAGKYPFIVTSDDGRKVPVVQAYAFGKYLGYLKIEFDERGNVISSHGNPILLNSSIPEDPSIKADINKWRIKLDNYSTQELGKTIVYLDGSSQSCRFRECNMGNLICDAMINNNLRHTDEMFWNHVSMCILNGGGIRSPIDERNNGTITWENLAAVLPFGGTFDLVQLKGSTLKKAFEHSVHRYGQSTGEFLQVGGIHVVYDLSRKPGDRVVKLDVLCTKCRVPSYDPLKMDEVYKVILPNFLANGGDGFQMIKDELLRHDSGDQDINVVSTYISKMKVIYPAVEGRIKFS
The following applies: cited from earlier work.

Assay [2] deals with T2, CD73 mutants having substitutions at residues A99, E129, K133, E134 and A135 (Homo sapiens, UniProt P21589, A135S/A99S/E129A/E134N/K133A).
T2 sequence (P21589 27-549 A99S/E129A/K133A/E134N/A135S): T1 sequence (P21589 27-549 K136A) with A73S, E103A, K107A, E108N, A109S, A110K
The following applies: cited from earlier work.

The subject of assay [3] is CD73 mutants having a substitution at residues K97, E125, Q153 and K330. The following applies: cited from earlier work.
Assay [4] concerns the target T3, soluble recombinant human CD39 protein (Homo sapiens, UniProt P49961).
T3 construct: made in house; host or cells: CHO cells
T3 sequence (P49961 with tags, fused parts or gaps): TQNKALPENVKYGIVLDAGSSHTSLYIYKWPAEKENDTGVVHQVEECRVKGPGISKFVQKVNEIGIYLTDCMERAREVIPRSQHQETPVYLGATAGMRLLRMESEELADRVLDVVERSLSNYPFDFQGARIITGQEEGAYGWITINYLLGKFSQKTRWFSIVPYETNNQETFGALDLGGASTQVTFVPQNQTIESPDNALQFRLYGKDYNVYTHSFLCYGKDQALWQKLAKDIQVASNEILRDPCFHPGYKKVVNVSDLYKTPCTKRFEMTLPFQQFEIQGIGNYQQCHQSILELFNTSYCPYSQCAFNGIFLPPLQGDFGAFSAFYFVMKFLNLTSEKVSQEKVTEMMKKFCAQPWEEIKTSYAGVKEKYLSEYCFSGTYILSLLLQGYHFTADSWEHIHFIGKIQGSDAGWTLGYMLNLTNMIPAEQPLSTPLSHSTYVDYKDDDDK
The assay can be described thus: Inhibition of the enzymatic (ATPase) activity of soluble CD39, Cell Titer Glo. Format: biochemical. The following applies: 400 ng/ml soluble CD39, 20 μM ATP. Here is the method:
The ability of an antibody to inhibit soluble recombinant human CD39 protein can be tested by detecting ATP after incubating test antibody with soluble CD39 protein (e.g., the CD39 protein having the amino acid sequence of SEQ ID NO: 5, as produced in Example 1, optionally further comprising a purification tag or other functional or non-functional non-CD39-derived amino acid sequence). See, e.g., Example 1. Briefly, ATP can be quantified using the Cell Titer Glo™ (Promega), in an assay in which dose ranges of test antibody are incubated with soluble recombinant human CD39 protein described in Example 1, for 1 hour at 37° C. 20 μM ATP are added to the plates for 30 additional minutes at 37° C. before addition of CTG reagent. Emitted light is quantified using an Enspire™ luminometer after a short incubation period of 5 min in the dark.
The inhibition by antibodies of the enzymatic activity of soluble CD39 protein produced was evaluated using Cell Titer Glo™ (Promega, reference G7571) that allows assessment of ATP hydrolysis through use of a reagent that generates a luminescent signal proportional to the amount of ATP present. In this way, inhibition of the soluble-CD39-mediated ATP hydrolysis can be assessed. Briefly, dose ranges of anti-CD39 antibodies from 100 μg/ml to 6×10^−3 μg/ml were incubated with 400 ng/ml of soluble recombinant human CD39 protein having the amino acid sequence described in the Methods section (SEQ ID NO: 54), for 1h at 37° C. 20 μM ATP was added to the plates for 30 additional minutes at 37° C. before addition of CTG (Cell Titer Glo) reagent. Emitted light was quantified using an Enspire™ luminometer after a short incubation period of 5 min in the dark. Anti-CD39 antibody efficacy was determined by comparing emitted light in presence of antibody with ATP alone (maximal light emission) and ATP together with soluble CD39 protein (minimal light emission).

Assay [5] concerns other CD39 mutants of Table 1. The assay can be described thus: Epitope mapping by flow cytometry on the other CD39 mutants of Table 1. Format: binding, human. On the procedure:
(§1) CD39 mutants were generated by PCR. The sequences amplified were run on agarose gel and purified using the Macherey Nagel PCR Clean-Up Gel Extraction kit (reference 740609). The purified PCR products generated for each mutant were then ligated into an expression vector, with the ClonTech InFusion system. The vectors containing the mutated sequences were prepared as Miniprep and sequenced. After sequencing, the vectors containing the mutated sequences were prepared as Midiprep using the Promega PureYield™ Plasmid Midiprep System. HEK293T cells were grown in DMEM medium (Invitrogen), transfected with vectors using Invitrogen's Lipofectamine 2000 and incubated at 37° C. in a CO2 incubator for 48 hours prior to testing for transgene expression. The targeted amino acid mutations in the table 1 below are shown using numbering of SEQ ID NO: 2.
(§2) In order to define the epitopes of anti-CD39 antibodies, we designed CD39 mutants defined by substitutions of amino acids exposed at the molecular surface over the surface of CD39.
Mutant 5 contains amino acid substitutions at residues Q96, N99, E143 and R147.
(§3) Mutants were transfected in Hek-293T cells, as shown in the table 1, using numbering of SEQ ID NO: 2. Dose-ranges of test antibodies (10-2.5-0.625-0.1563-0.0391-0.0098-0.0024-0.0006 μg/ml) are tested on the 20 generated mutants by flow cytometry.

For another assay, the target named is T4, CD39 mutant 11 (Homo sapiens, UniProt P49961, DUP378-378/E375A/K376G/L372K/N371K/V377S).
T4 construct: expressed in transfected cells; host or cells: HEK-293T cells
T4 sequence (P49961 with tags, fused parts or gaps N371K/L372K/E375A/K376G/DUP378-378): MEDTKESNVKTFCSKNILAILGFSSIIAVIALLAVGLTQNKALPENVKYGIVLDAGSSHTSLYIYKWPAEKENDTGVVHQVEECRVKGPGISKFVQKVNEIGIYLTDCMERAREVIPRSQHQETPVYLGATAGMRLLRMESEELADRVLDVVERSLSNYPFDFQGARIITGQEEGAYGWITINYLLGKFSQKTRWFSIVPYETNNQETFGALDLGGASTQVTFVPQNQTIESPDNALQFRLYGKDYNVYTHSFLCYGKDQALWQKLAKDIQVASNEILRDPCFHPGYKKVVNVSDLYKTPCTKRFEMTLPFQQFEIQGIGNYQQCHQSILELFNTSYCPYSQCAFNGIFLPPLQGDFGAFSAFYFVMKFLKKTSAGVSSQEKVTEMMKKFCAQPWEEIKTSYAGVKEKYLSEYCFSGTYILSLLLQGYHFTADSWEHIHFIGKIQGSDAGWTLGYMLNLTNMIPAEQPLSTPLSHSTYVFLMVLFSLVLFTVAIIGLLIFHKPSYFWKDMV
Briefly: Epitope mapping by flow cytometry on Hek-293T cells expressing CD39 mutant 11. Format: binding. The following applies: insertion 377V, V377S (Table 1). Here is the method:
as §1, §2, §3

B1: 11E1: anti-CD73 antibody, VH and VL of SEQ ID NOS: 40 and 41 (antibody, listed as Mus musculus, V domains shown)
VH: EIQLQQSGPELVKPGASVKVSCKASGYAFTSYNMYWVKQSHGKSLEWIGYIDPYNGGTSYNQKFKGKATLTVDKSSSTAYMHLNSLTSEDSAVYYCARGYGNYKAWFAYWGQGTLVTVSA
VL: DAVMTQTPKFLLVSAGDRVTITCKASQSVTNDVAWYQQKPGQSPKLLIYYASNRYTGVPDRFTGSGYGTDFTFTISTVQAEDLAVYFCQQDYSSLTFGAGTKLELK
Consider B1, for which the “binding to CD73 mutants having a substitution at residue K136” value (“binding … at residue K136” for short) in assay [1] was “lose binding”. Further, in assay [2], the “binding to CD73 mutants having substitutions at residues A99, E129, K133, E134 and A135” value (“binding … E134 and A135” for short) was “lose binding”. Also, in assay [3], the “binding to CD73 mutants having a substitution at residues K97, E125, Q153 and K330” value (shortened to “binding … Q153 and K330”) is reported as “lose binding”.

B2: 6E1: anti-CD73 antibody, VH and VL of SEQ ID NOS: 3 and 4 (WO2016/055609) (antibody, listed as Mus musculus, V domains shown)
VH: B1 VH with I2F, S44R, T58S, S85N, G101N
VL: B1 VL with D1S, A2I, V78M
Turning to B2, the “binding … at residue K136” value in assay [1] is reported as “lose binding”. In assay [2], the “binding … E134 and A135” value is “lose binding”. Also, the “binding … Q153 and K330” value in assay [3] was “lose binding”.

B3: I-399: anti-CD39 antibody, VH SEQ ID NO: 30, VL SEQ ID NO: 31 (antibody, listed as Mus musculus, V domains shown)
VH: PVQLQQPGAEVVMPGASVKLSCKASGYTFTSFWMNWMRQRPGQGLEWIGEIDPSDFYTNSNQRFKGKATLTVDKSSSTAYMQLSSLTSEDSAVYFCARGDFGWYFDVWGTGTSVTVSS
VL: EIVLTQSPTTMTSSPGEKITFTCSASSSINSNYLHWYQQKPGFSPKLLIYRTSNLASGVPTRFSGSGSGTSYSLTIGTMEAEDVATYYCQQGSSLPRTFGGGTKLEIK
With B3, in assay [4], the “inhibition of the enzymatic (ATPase) activity of soluble CD39 protein” value was “showed inhibition”. Further, the “binding to any other mutant of the 20 CD39 mutants” value in assay [5] is given as “without loss of binding”. Further, the “binding to cells expressing mutant 11 of CD39” value in the assay with CD39 mutant 11 was “loss of binding”.

B4: 3C12: anti-CD73 antibody, VH and VL of SEQ ID NOS: 44 and 45 (antibody, listed as Mus musculus, V domains shown)
VH: QIQLQQSGPELVKPGASVKVSCKASGYAFASYNMNWVKQSHGKSLDWIGYIDPYNGGSSYNLTFKGKATLTVDKSSTTAYMHLNSLTSEDSAVYYCARGYGNYKAWFAYWGQGTLVTVSAASTKGP
VL: DVVMTQTPKFLLVSAGDRVTITCKASQSVSNDVAWYQQKPGQSPKLLIYYASTRYTGVPDRFTGSGYGTDFTFTISTVQAEDLAVYFCQQDYSSLTFGAGTKLELKRTVAAP
As to B4, the “binding … at residue K136” value in assay [1] is given as “lose binding”. Moreover, the “binding … E134 and A135” value in assay [2] is recorded as “lose binding”. The “binding … Q153 and K330” value in assay [3] is “lose binding”.

B5: 8C7: anti-CD73 antibody, VH and VL of SEQ ID NOS: 42 and 43 (antibody, listed as Mus musculus, V domains shown)
VH: B4 VH with Q1E, I2V
VL: B4 VL with D1S, V2I, Q6P
For B5, the “binding … at residue K136” value in assay [1] was “lose binding”. The “binding … E134 and A135” value in assay [2] was “lose binding”. Besides, the “binding … Q153 and K330” value in assay [3] is “lose binding”.
